In article PMC2668526 (Bioorganic & medicinal chemistry, 2008):

Assays:
Experiment in all cases: purified protein, by the assay type
Settings in all cases: other: O2 consumption, 5.0 mM ascorbate, pH 6.0, 37 °C
[1] = substrate: CC(=O)NCC(=O)NCC(=O)O
[2] = substrate: CC(C)(C)OC(=O)NCC(=O)NCC(=O)O
[3] = substrate: CC(C)(C)OC(=O)NCC(=O)O
[4] = substrate: CC(Cc1ccccc1)C(=O)NCC(=O)O
[5] = substrate: CCCc1ccc(C(=O)NCC(=O)O)cc1
[6] = substrate: COc1ccc(C(=O)NCC(=O)O)cc1
[7] = substrate: Cc1ccc(C(=O)NCC(=O)O)cc1
[8] = substrate: Cc1ccccc1C(=O)NCC(=O)O
[9] = substrate: Nc1ccccc1C(=O)NCC(=O)O
[10] = substrate: O=C(O)CNC(=O)C1CC1c1ccccc1
[11] = substrate: O=C(O)CNC(=O)CCCCCCCc1ccccc1
[12] = substrate: O=C(O)CNC(=O)CCCCc1ccccc1
[13] = substrate: O=C(O)CNC(=O)CCc1ccccc1
[14] = substrate: O=C(O)CNC(=O)CNC(=O)c1ccc([N+](=O)[O-])cc1
[15] = substrate: O=C(O)CNC(=O)CNC(=O)c1ccccc1
[16] = substrate: O=C(O)CNC(=O)CSc1ccccc1
[17] = substrate: O=C(O)CNC(=O)Cc1ccccc1
[18] = substrate: O=C(O)CNC(=O)OCc1ccccc1
[19] = substrate: O=C(O)CNC(=O)c1ccc(Br)cc1
[20] = substrate: O=C(O)CNC(=O)c1ccc(C(F)(F)F)cc1
[21] = substrate: O=C(O)CNC(=O)c1ccc(O)cc1
[22] = substrate: O=C(O)CNC(=O)c1cccc(Cl)c1
[23] = substrate: O=C(O)CNC(=O)c1ccccc1
[24] = substrate: O=C(O)CNC(=O)c1ccccc1O
[25] = substrate: O=C(O)CNC(=O)c1cccnc1
[26] = substrate: O=C(O)CNC(=O)c1ccco1
[27] = substrate: O=C(O)CNC(=S)Cc1ccccc1

B1: rat PAM (Rattus norvegicus) (protein)
chain: FKETTRSFSNECLGTIGPVTPLDASDFALDIRMPGVTPKESDTYFCMSMRLPVDEEAFVIDFKPRASMDTVHHMLLFGCNMPSSTGSYWFCDEGTCTDKANILYAWARNAPPTRLPKGVGFRVGGETGSKYFVLQVHYGDISAFRDNHKDCSGVSVHLTRVPQPLIAGMYLMMSVDTVIPPGEKVVNADISCQYKMYPMHVFAYRVHTHHLGKVVSGYRVRNGQWTLIGRQNPQLPQAFYPVEHPVDVTFGDILAARCVFTGEGRTEATHIGGTSSDEMCNLYIMYYMEAKYALSFMTCTKNVAPDMFRTIPAEANIPIPVKPDMVMMHGHHKEAENKEKSALMQQPKQGEEEVLEQDFHVEEELDWPGVYLLPGQVSGVALDSKNNLVIFHRGDHVWDGNSFDSKFVYQQRGLGPIEEDTILVIDPNNAEILQSSGKNLFYLPHGLSIDTDGNYWVTDVALHQVFKLDPHSKEGPLLILGRSMQPGSDQNHFCQPTDVAVEPSTGAVFVSDGYCNSRIVQFSPSGKFVTQWGEESSGSSPRPGQFSVPHSLALVPHLDQLCVADRENGRIQCFKTDTKEFVREIKHASFGRNVFAISYIPGFLFAVNGKPYFGDQEPVQGFVMNFSSGEIIDVFKPVRKHFDMPHDIVASEDGTVYIGDAHTNTVWKFTLTEKMEHRSV
**Q.** With B1 as the protein, how does the kcat [1] read?
**A.** The kcat was 8.9 ± 0.2 s⁻¹.

**Q.** And the kcat/Km [1]?
**A.** The kcat/Km was 5900 ± 200 M⁻¹ s⁻¹.

**Q.** And the Km [2]?
**A.** Its Km is 300 ± 30 µM.

**Q.** What about the kcat [2] of the same protein?
**A.** Its kcat is 7.5 ± 0.2 s⁻¹.

**Q.** And the kcat/Km [2]?
**A.** The kcat/Km was 25000 ± 1000 M⁻¹ s⁻¹.

**Q.** What about the Km [3] of the same protein?
**A.** Its Km is 3700 ± 200 µM.

**Q.** And the kcat [3]?
**A.** Its kcat is 6.3 ± 0.3 s⁻¹.

**Q.** And the kcat/Km [3]?
**A.** The kcat/Km was 1700 ± 50 M⁻¹ s⁻¹.

**Q.** And the Km [4]?
**A.** Its Km is 4100 ± 300 µM.

**Q.** And the kcat [4]?
**A.** The kcat was 18 ± 0.9 s⁻¹.

**Q.** And the kcat/Km [4]?
**A.** Its kcat/Km is 4300 ± 100 M⁻¹ s⁻¹.

**Q.** And the Km [5]?
**A.** The Km was 1200 ± 200 µM.

**Q.** And the kcat [5]?
**A.** The kcat was 5.1 ± 0.4 s⁻¹.

**Q.** What about the kcat/Km [5] of the same protein?
**A.** The kcat/Km was 4200 ± 600 M⁻¹ s⁻¹.

**Q.** What about the Km [6] of the same protein?
**A.** Its Km is 820 ± 40 µM.

**Q.** And the kcat [6]?
**A.** Its kcat is 5.3 ± 0.08 s⁻¹.

**Q.** What about the kcat/Km [6] of the same protein?
**A.** The kcat/Km was 6400 ± 200 M⁻¹ s⁻¹.

**Q.** And the Km [7]?
**A.** Its Km is 1800 ± 200 µM.

**Q.** What about the kcat [7] of the same protein?
**A.** Its kcat is 5.7 ± 0.3 s⁻¹.

**Q.** And the kcat/Km [7]?
**A.** The kcat/Km was 3200 ± 200 M⁻¹ s⁻¹.

**Q.** And the Km [8]?
**A.** The Km was 4300 ± 300 µM.

**Q.** What about the kcat [8] of the same protein?
**A.** The kcat was 7.9 ± 0.3 s⁻¹.

**Q.** And the kcat/Km [8]?
**A.** Its kcat/Km is 1800 ± 40 M⁻¹ s⁻¹.

**Q.** And the Km [9]?
**A.** Its Km is 1400 ± 100 µM.

**Q.** And the kcat [9]?
**A.** The kcat was 4.2 ± 0.1 s⁻¹.

**Q.** And the kcat/Km [9]?
**A.** The kcat/Km was 2900 ± 100 M⁻¹ s⁻¹.

**Q.** What about the Km [10] of the same protein?
**A.** The Km was 900 ± 70 µM.

**Q.** What about the kcat [10] of the same protein?
**A.** Its kcat is 10 ± 0.3 s⁻¹.

**Q.** What about the kcat/Km [10] of the same protein?
**A.** Its kcat/Km is 11000 ± 700 M⁻¹ s⁻¹.

**Q.** And the Km [11]?
**A.** The Km was 0.10 ± 0.009 0.064 ± 0.006 mM.

**Q.** And the kcat [11]?
**A.** Its kcat is 8 ± 0.3 s⁻¹.

**Q.** What about the kcat/Km [11] of the same protein?
**A.** The kcat/Km was 76000 ± 4000 M⁻¹ s⁻¹.

**Q.** What about the kcat [12] of the same protein?
**A.** The kcat was 12 ± 0.4 s⁻¹.

**Q.** And the kcat/Km [12]?
**A.** Its kcat/Km is 76000 ± 4000 M⁻¹ s⁻¹.

**Q.** What about the Km [13] of the same protein?
**A.** The Km was 0.94 ± 0.1 0.55 ± 0.039 mM.

**Q.** What about the kcat [13] of the same protein?
**A.** Its kcat is 9.9 ± 0.4 s⁻¹.

**Q.** And the kcat/Km [13]?
**A.** Its kcat/Km is 11000 ± 600 M⁻¹ s⁻¹.

**Q.** What about the Km [14] of the same protein?
**A.** The Km was 110 ± 7 µM.

**Q.** And the kcat [14]?
**A.** The kcat was 8.7 ± 0.2 s⁻¹.

**Q.** What about the kcat/Km [14] of the same protein?
**A.** The kcat/Km was 76000 ± 4000 M⁻¹ s⁻¹.

**Q.** What about the Km [15] of the same protein?
**A.** The Km was 78 ± 11 µM.

**Q.** And the kcat [15]?
**A.** Its kcat is 12 ± 0.8 s⁻¹.

**Q.** What about the kcat/Km [15] of the same protein?
**A.** The kcat/Km was 160000 ± 10000 M⁻¹ s⁻¹.

**Q.** And the Km [16]?
**A.** Its Km is 190 ± 20 µM.

**Q.** What about the kcat [16] of the same protein?
**A.** Its kcat is 4.6 ± 0.2 s⁻¹.

**Q.** What about the kcat/Km [16] of the same protein?
**A.** The kcat/Km was 25000 ± 1000 M⁻¹ s⁻¹.

**Q.** What about the Km [17] of the same protein?
**A.** The Km was 160 ± 5 µM.

**Q.** And the kcat [17]?
**A.** Its kcat is 7.4 s⁻¹.

**Q.** And the kcat/Km [17]?
**A.** Its kcat/Km is 46000 M⁻¹ s⁻¹.

**Q.** What about the Km [18] of the same protein?
**A.** The Km was 590 ± 20 µM.

**Q.** What about the Km [19] of the same protein?
**A.** The Km was 520 ± 60 µM.

**Q.** And the kcat/Km [19]?
**A.** Its kcat/Km is 4900 ± 400 M⁻¹ s⁻¹.

**Q.** What about the Km [20] of the same protein?
**A.** Its Km is 770 ± 100 µM.

**Q.** And the kcat [20]?
**A.** The kcat was 2.8 ± 0.1 s⁻¹.

**Q.** And the kcat/Km [20]?
**A.** The kcat/Km was 3600 ± 500 M⁻¹ s⁻¹.

**Q.** What about the Km [21] of the same protein?
**A.** Its Km is 1700 ± 100 µM.

**Q.** What about the kcat [21] of the same protein?
**A.** Its kcat is 5.8 ± 0.1 s⁻¹.

**Q.** What about the kcat/Km [21] of the same protein?
**A.** Its kcat/Km is 3500 ± 200 M⁻¹ s⁻¹.

**Q.** And the Km [22]?
**A.** The Km was 2200 ± 200 µM.

**Q.** What about the kcat [22] of the same protein?
**A.** Its kcat is 7.8 ± 0.3 s⁻¹.

**Q.** And the kcat/Km [22]?
**A.** Its kcat/Km is 3600 ± 200 M⁻¹ s⁻¹.

**Q.** And the Km [23]?
**A.** The Km was 1300 ± 40 µM.

**Q.** And the kcat [23]?
**A.** Its kcat is 8.2 ± 0.08 s⁻¹.

**Q.** And the kcat/Km [23]?
**A.** Its kcat/Km is 6200 ± 100 M⁻¹ s⁻¹.

**Q.** And the kcat [24]?
**A.** Its kcat is 4.9 ± 0.05 s⁻¹.

**Q.** What about the kcat/Km [24] of the same protein?
**A.** The kcat/Km was 7100 ± 100 M⁻¹ s⁻¹.

**Q.** What about the Km [25] of the same protein?
**A.** Its Km is 1900 ± 100 µM.

**Q.** And the kcat [25]?
**A.** The kcat was 8 ± 0.2 s⁻¹.

**Q.** What about the kcat/Km [25] of the same protein?
**A.** Its kcat/Km is 4200 ± 200 M⁻¹ s⁻¹.

**Q.** And the Km [26]?
**A.** Its Km is 2700 ± 100 µM.

**Q.** And the kcat [26]?
**A.** Its kcat is 7.5 ± 0.07 s⁻¹.

**Q.** And the kcat/Km [26]?
**A.** The kcat/Km was 2800 ± 100 M⁻¹ s⁻¹.

**Q.** What about the Km [27] of the same protein?
**A.** The Km was 24 ± 5 µM.

**Q.** What about the kcat [27] of the same protein?
**A.** Its kcat is 2.4 ± 0.2 s⁻¹.

**Q.** What about the kcat/Km [27] of the same protein?
**A.** The kcat/Km was 100000 ± 20000 M⁻¹ s⁻¹.
